# Where no end group is shown, it is not given here. The star is where a group is joined. Thia = thiazolidide, C1CN(*)CS1
# How the values were obtained:
# [1] = target: recombinant human DP IV, wild type (human) (UniProt P27487); test: photometric assay, competition with the standard substrate GP-4NA
# [2] = target: recombinant human DP IV, wild type (human) (UniProt P27487); test: MALDI-TOF MS, inhibition of DP IV-catalyzed truncation of the substrate PACAP-27 after preincubation with TFTSDY
# [3] = target: recombinant human DP IV, wild type (human) (UniProt P27487); test: MALDI-TOF MS, inhibition of DP IV-catalyzed truncation of the substrate glucagon after preincubation with TFTSDY
# [4] = target: recombinant human DP IV, wild type (human) (UniProt P27487); test: MALDI-TOF MS, inhibition of DP IV-catalyzed truncation of the substrate GIP after preincubation with TFTSDY
# [5] = target: recombinant human DP IV, wild type (human) (UniProt P27487); test: MALDI-TOF MS, inhibition of DP IV-catalyzed truncation of the substrate PACAP-38 after preincubation with TFTSDY
# Sequence of recombinant human DP IV, wild type (human) (P27487 other isoform, or with tags, fused parts or gaps): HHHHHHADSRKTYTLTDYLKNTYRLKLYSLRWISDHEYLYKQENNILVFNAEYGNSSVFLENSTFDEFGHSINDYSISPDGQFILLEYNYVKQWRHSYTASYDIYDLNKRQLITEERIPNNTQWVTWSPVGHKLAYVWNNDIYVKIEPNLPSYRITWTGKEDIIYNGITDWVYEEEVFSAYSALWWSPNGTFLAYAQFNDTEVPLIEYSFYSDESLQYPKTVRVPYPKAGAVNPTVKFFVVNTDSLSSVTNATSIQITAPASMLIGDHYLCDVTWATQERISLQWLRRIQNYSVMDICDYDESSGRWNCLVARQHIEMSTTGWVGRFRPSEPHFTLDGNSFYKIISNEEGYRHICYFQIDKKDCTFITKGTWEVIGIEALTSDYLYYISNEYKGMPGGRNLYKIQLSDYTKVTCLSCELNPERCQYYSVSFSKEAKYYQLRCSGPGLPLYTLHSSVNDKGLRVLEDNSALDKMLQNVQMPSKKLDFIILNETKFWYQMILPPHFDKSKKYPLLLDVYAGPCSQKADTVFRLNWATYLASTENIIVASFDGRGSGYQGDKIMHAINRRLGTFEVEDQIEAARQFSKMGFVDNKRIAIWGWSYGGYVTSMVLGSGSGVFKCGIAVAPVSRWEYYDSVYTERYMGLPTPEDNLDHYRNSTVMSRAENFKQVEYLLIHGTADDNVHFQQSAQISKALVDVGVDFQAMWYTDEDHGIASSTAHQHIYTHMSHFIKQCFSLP
Ki [1],Ki [2],Ki [3],Ki [4],Ki [5],Binder
38.3 µM,,,,,"HSDGIFTDSYSRYRKQMAVKKYLAAVLGKRYKQRVKNK (peptide, UniProt P18509 132-169, looked up, ends and bridges not checked) [PACAP-38]"
0.0351 µM,,,,,YAESTF-NH2 [YAESTF amide]
,26.7 µM,3.7 µM,14 µM,2.8 µM,TFTSDY [hexapeptide TFTSDY]
0.0508 µM,,,,,RRLSYSRRRFE-Thia (also: linkage of decapeptide to Glu not explained) [Transp 01 (…-E-Thia)]
